This note sets out measurements from the DeepSol protein solubility set.

A short description of this data set: soluble on expression in E. coli; label from the status in PepcDB or PDB records.
“SAEASSANLGSGCEEKRHEGSSSESVPPGTTISRVKLLDTMVDTFLQKLVAAGSYQRFTDCYKCFYQLQPAMTQRIYDKFIAQLQTSIREEISDIKEEGNLEAVLNALDKIVEEGKVRKEPAWCEAQRCRVQQRCSLCVQAGGQRGSEETQALPVSMAGSPSPLPGSPGAQEGGV”: the “soluble on expression in E. coli” value is given as “soluble”.

In the case of “ADLGTENLYFQSMKPSPEEAQLWSEAFDELLASKYGLAAFRAFLKSEFCEENIEFWLACEDFKKTKSPQKLSSKARKIYTDFIEKEAPKEINIDFQTKTLIAQNIQEATSGCFTTAQKRVYSLMENNSYPRFLESEFYQDLCKKPQ”, the “soluble on expression in E. coli” value is “soluble”.

On to “MDWYEPGEDTYTLMDALEREGLEMKIVLDLGTSTGVITEQLRKRNTVVSTDLNIRALESHRGGNLVRADLLCSINQESVDVVVFNPPYVPDTDDPIIGGGYLGREVIDRFVDAVTVGMLYLLVIEANRPKEVLARLEERGYGTRILKVRKILGETVYIIKGEKS”, for which the “soluble on expression in E. coli” value is “not soluble”.

For the sequence “MSLSKQIVILGAGYGGLLAALNVRKYYSKSEAQVTVINQYPTHQIITELHRLAAGNVSEQAVAMPLTKLFKGKDIDLKIATVESFSVDSKEIKLAGGTTLSYDALVVALGSKTAYFGIPGLEENSMVLKSAADANKIYKHVEDRIREYAKTKNEADATIVIGGGGLTGVELVGELADIMPKLAKSHGVNPKEVKLLLVEAGPKILPVLPDHLIERATTSLEARGVTFLTGLPVTNVAGNEIDLKDGQKLVANTFVWTGGVQGNPLIGESGLEVNRGRATVDAYLQSTSHKDVFVAGDSAVVFAPDGRPYPPTAQIAWQMGELIGYNLYAALEGKAFEEFAPVNSGTLASLGRKDAVATIGASNTPLKGLPASLMKEASNVRYLSHIKGLFSLAYEGHHHHHH”, the “soluble on expression in E. coli” value was “soluble”.

As to “MDSEGASSESSSSGDQLEKWTEEQDELKKKLIAYDDFTWKLSSSTELSQGSEILKYVGGVDMSFCKEDSSVACACLVVLELPSLRVVHHDFSLLRLHVPYVPGFLAFREAPVLLQILQKMRDEKHPFYPQVLMVDGNGILHPRGFGLACHLGVLAHLPTIGVGKNLHHVDGLNQSEVKQSLQLQINEHEQTITLVGNSGITWGVGFRPTLSSLKPIYVSVGHRISLDSAVEVVKITCKYRVPEPIRQADIRSRAYLQKHQTESFKELAVRPPDQTEP”, the “soluble on expression in E. coli” value is recorded as “soluble”. Under “MNYHWSDHPDPNKWADCVHCGMCLEACPTYELTGHEQQSPRGRVHLIKSVAEGKLEVNEAFADPVFTCLDCRACETACPADVEVGGLIEEARGQIRQALPLSGWKLEHHHHHH” stands “not soluble”; under “MSNPITITESAQSHFAKLLAQQPEGTNIRVFVVNPGTQNAECGVSYCPPEAVEATDTEYPFSGFSAYVDELSLPFLEEAVIDFVTDKMGSQLTLKAPNAKMRKVSDDASLMERVEYALQTQVNPQLAGHGGHVRLISISDDGVALVQFGGGCNGCSMVDVTLKEGIEKELLAQFAGELTAVRDSTEHDRGEHSYY”, “not soluble”; under “MKTWLTTLILSLSTLGLAHADVATTQQNLKKNFPEIPVSAVNTTPVKGVYEVITEGQIVYTNDDAQYFFVGNLVDPKNQRNLTAERMQQLNKIDVSTLPLNQAIKHVKGNGKRTLYIFSDPDCPYCQRLEKELTAVDNVTIYLFLFPLTTLHPNAETIATQIWCSKNQYQAWQDYLLNHKAPTASQKCSTPIQKNLALGQKLNINGTPTMYLKNGERIAGAMQAGQLNTLLDQAQ”, “not soluble”. Under “MGSDKIHHHHHHMKKKNVIVFGGGTGLSVLLRGLKTFPVSITAIVTVADDGGSSGRLRKELDIPPPGDVRNVLVALSEVEPLLEQLFQHRFENGNGLSGHSLGNLLLAGMTSITGDFARGISEMSKVLNVRGKVLPASNRSIILHGEMEDGTIVTGESSIPKAGKKIKRVFLTPKDTKPLREGLEAIRKADVIVIGPGSLYTSVLPNLLVPGICEAIKQSTARKVYICNVMTQNGETDGYTASDHLQAIMDHCGVGIVDDILVHGEPISDTVKAKYAKEKAEPVIVDEHKLKALGVGTISDYFVLEQDDVLRHNASKVSEAILEGKPRTSSSIQ” stands “not soluble”. Under “MIFKSNFTTRAGLAALALSFAAAGAPSVASAQQAGGKPPQGWFKVCTKQEDNDVCIVQNLLTANNGQLVTAVGLITVSGKVNRKVMQVSVPSARMIPPGVQMQIDGGKGVKLDYAICMPDKCVAEAPLSDALIAQLKKGNEVVFTSVNFQRAPNPIKMSLEGFTGVFDGEPIEQSQLEERQRLLQEEMQKKAEDARKKLEEAQKAAKQQ” stands “not soluble”; under “MPLIAGIDIGNATTEVALASDYPQARAFVASGIVATTGMKGTRDNIAGTLAALEQALAKTPWSMSDVSRIYLNEAAPVIGDVAMETITETIITESTMIGHNPQTPGGVGVGVGTTIALGRLATLPAAQYAEGWIVLIDDAVDFLDAVWWLNEALDRGINVVAAILKKDDGVLVNNRLRKTLPVVDEVTLLEQVPEGVMAAVEVAAPGQVVRILSNPYGIATFFGLSPEETQAIVPIARALIGNRSAVVLKTPQGDVQSRVIPAGNLYISGEKRRGEADVAEGAEAIMQAMSACAPVRDIRGEPGTHAGGMLERVRKVMASLTGHEMSAIYIQDLLAVDTFIPRKVQGGMAGECAMENAVGMAAMVKADRLQMQVIARELSARLQTEVVVGGVEANMAIAGALTTPGCAAPLAILDLGAGSTDAAIVNAEGQITAVHLAGAGNMVSLLIKTELGLEDLSLAEAIKKYPLAKVESLFSIRHENGAVEFFREALSPAVFAKVVYIKEGELVPIDNASPLEKIRLVRRQAKEKVFVTNCLRALRQVSPGGSIRDIAFVVLVGGSSLDFEIPQLITEALSHYGVVAGQGNIRGTEGPRNAVATGLLLAGQAN”, “soluble”.

For “MSLELNFSQTLGNHCLTINETLPANGITAIFGVSGAGKTSLINAISGLTRPQKGRIVLNGRVLNDAEKGICLTPEKRRVGYVFQDARLFPHYKVRGNLRYGMSKSMVDQFDKLVALLGIEPLLDRLPGSLSGGEKQRVAIGRALLTAPELLLLDEPLASLDIPRKRELLPYLQRLTREINIPMLYVSHSLDEILHLADRVMVLENGQVKAFGALEEVWGSSVMNPWLPKEQQSSILKVTVLEHHPHYAMTALALGDQHLWVNKLGEPLQAALRIRIQASDVSLVLQPPQQTSIRNVLRAKVVNSYDDNGQVEVELEVGGKTLWARISPWARDELAIKPGLWLYAQIKSVSITEGHHHHHH”, the “soluble on expression in E. coli” value was “soluble”.

On to “MAEIEKTVLVGYSASQMFRLVDTVENYPDFLPWCSGASMKLMEDNETAQATVHIDYHHIKHSFTTKNTRHPPELIKMELVEGPFEKLNGYWRFIPLSENACKIEFQLHYTFSHKLLEKLVGPVFYVIANNFVEAFVEQAEKIYGPSILEHHHHHH”, for which the “soluble on expression in E. coli” value is reported as “soluble”. With “MDTDNNLTFVDFYYRWLEITKLDIINDTSYKRYITAIKAFKDCFGNKLISDIDSLSYQKFLKDYGRGHFLNNGQLRPRTSNTVSKMNNCLKQAFESAVEQGYIKKNLEHHHHHH” the entry was “not soluble”; with “MKERKFINEAVKRLLVCEYVVKETENAGFGNMVMKRTPFGTNITLYVNRPGLVIGRRGSKVQQMTDTLEKKYGIETPQIEVKDVKDPDLNPSVIAKKIALSLEKGWSYRKAGNTSLNRTIQAGAKGVLIKISGKISGERARYQKFIYGNVKYSGEPGSKGMITGFSTAKLKVGILGVTVKILNPEYKLPDVFSIENITGGEEVGTESKADQTDVEGRETGNAEES”, “not soluble”; with “MGSDKIHHHHHHMKSFDEMTPKEIVQELDKYIVGQYEAKKAVAIAVRNRIRRQKLPEEWRKEVLPKNILMIGPTGVGKTEIARRLAQLSGSPFLKVEATRFTEVGYVGKNVDSMIRDLVEISVNMVKQEKIKEVERQAEELVEERILDALVPESKAMPVVTNPFINLITGGQQQQYTPEDRRRFRAKREEMREKLRKGELEDEEIEIELEETVSPFMGIFGPGMEDLGIEITNMFSGMLPKRKKKRKMKVSEARKVLLPLEAEKLIDMDKVVQEALDRAQNRGIIFIDEIDKIAGKESAVGPDVSRQGVQRDLLPIVEGTTIMTKYGPVRTDFILFIAAGAFHVSRPSDLIPELQGRFPIRVELSPLTEEDFVRILKEPENAIIKQYQALLSTEGVELVFTEDGIREMARIAYQLNQRLENIGARRLYTVAEKVLEEISFEAPDIPEKRVVVDAEYVRRRLEKIVQDEDLSAYIL”, “not soluble”.
